Experimental data as given in patent WO2018039626A1 (dated 2018).

B1: sdA1 (human single domain antibody targeting CD16A) (VHH)
VHH: EVQLVESGGGLVQPGGSLRLSCAASGFTFSNYGMSWVRQAPGKGLEWIGSIYYSGGSTNYNPSLKGSLVISRDNSKNTLYLQMNSLAEDTATYYCARESIDYWGQGTLVTVSS
notes: Human VH single domain (VH3-23 scaffold), not camelid; Purified by Ni-NTA and detected with anti-Flag-HRP, so His and Flag tags were present; also called sdAl; D6
B2: sdA2 (human single domain antibody targeting CD16A) (VHH)
VHH: EVQLVESGGGLVQPGGSLRLSCAASGFTFSSYGMSWVRQAPGKGLEWIGEVNHSGGSTNYNPSLKGSFVISRDNSKNTLYLQMNSLAEDTAVYYCARVGSFDFWGQGTLVTVSS
notes: Human VH single domain; His and Flag tags are implied (Ni-NTA, anti-Flag-HRP); also called E11; El 1

Target: T1, recombinant CD16A ectodomain (human, UniProt P08637 17-208)
T1 construct: extracellular domain
T1 sequence (P08637 17-208): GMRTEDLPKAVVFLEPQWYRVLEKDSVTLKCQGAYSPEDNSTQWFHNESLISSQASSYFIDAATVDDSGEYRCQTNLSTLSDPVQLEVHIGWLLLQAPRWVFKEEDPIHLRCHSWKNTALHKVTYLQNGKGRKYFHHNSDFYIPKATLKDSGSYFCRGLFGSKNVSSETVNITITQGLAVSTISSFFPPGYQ
Assay: ELISA, CD16A ectodomain coated at 50 ng/well, sdA detected with anti-Flag-HRP

Row | Binder | EC50 [pM]
1 | B1 | 100
2 | B2 | 300
